Values of other authors as cited in paper PMC10814857, “Functional Classification and Interaction Selectivity Landscape of the Human SH3 Domain Superfamily” (Cells, 2024).

Tests used:
PACSIN1 SH3 domain = target: PACSIN1 SH3 domain; set-up: method as in ref [60] (a number printed in a supplementary file, which may have a reference list of its own: not looked up in the article's list); conditions: PACSIN1, ITC, Table S4; ref [60]
[1] = target: bPIX (ARHGEF7) SH3 domain; set-up: method as in 3 sources, one per row (each row's own in cited_ref): ref [33] (a number printed in a supplementary file, which may have a reference list of its own: not looked up in the article's list) ||| ref [60] (a number printed in a supplementary file, which may have a reference list of its own: not looked up in the article's list) ||| ref [34] (a number printed in a supplementary file, which may have a reference list of its own: not looked up in the article's list); conditions: ITC, Table S4, ref [60]
[2] = target: SH3GL2 (Endophilin-A1) SH3 domain; conditions: ITC, Table S4, ref [60]
Procedure: page 6: […] […] […] PAK2 […] PXXXPR PXXXPR 1.05 ITC [34] TRSVI ITSN1-2 Synthetic […] Exceptional [W/F][R/W]xSx[A/ 53 ITC [29] peptide G][F/Y][L/V]xGP[ W/L] NCK1-2 N-WASP GP[…] … 147 HSQC [64] VA[…] 199 PLCG1 SOS1 AAPV[…] … 0.20mM SPR [75] AADS[…] 0.40mM AAES[…] 0.70mM AAIA[…] 0.28mM BAIAP2L1 EspFUR45 IPP[…] … 0.5 nM ITC [76] (IRTKS) 9 SORBS2- Synthetic […] Exceptional XRXGXAYLXYVX 38 ITC [29] 1 peptide Synthetic RL[…](L/P) ...

Kd (PACSIN1 SH3 domain): 4330 nM
Kd [1]: 1440 nM
Kd [2]: 457 nM
B1: PEDAGAGENRRVSGNNSPSLSNGGFKPSRPPRPSRPPPPTPRRPASVNGSPSATSESDGSSTG (peptide)
chain: PEDAGAGENRRVSGNNSPSLSNGGFKPSRPPRPSRPPPPTPRRPASVNGSPSATSESDGSSTG
notes: published Itch proline-rich peptide
